T1: human GIP receptor (human, UniProt P48546 22-466)
T1 construct: whole, on cells; also called hGIPR; human glucose-dependent insulinotropic polypeptide receptor
T1 sequence (looked up): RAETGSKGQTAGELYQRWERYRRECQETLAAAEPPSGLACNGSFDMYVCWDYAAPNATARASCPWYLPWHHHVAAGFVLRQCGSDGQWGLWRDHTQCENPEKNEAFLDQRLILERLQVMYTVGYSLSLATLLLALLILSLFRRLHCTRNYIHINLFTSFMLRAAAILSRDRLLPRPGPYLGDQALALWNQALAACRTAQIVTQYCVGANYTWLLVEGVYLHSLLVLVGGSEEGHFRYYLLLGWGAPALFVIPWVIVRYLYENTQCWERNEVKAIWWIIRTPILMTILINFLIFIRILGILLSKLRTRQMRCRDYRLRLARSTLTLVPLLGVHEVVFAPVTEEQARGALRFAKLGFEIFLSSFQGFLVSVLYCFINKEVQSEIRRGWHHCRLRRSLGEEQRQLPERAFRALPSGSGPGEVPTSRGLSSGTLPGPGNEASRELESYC


Key:
human GIP receptor = biological target: T1, human GIP receptor; assay: SPA competition vs [125I]-GIP, hGIPR membranes
human glucagon receptor = biological target: T2, human glucagon receptor (human, UniProt P47871 26-477); assay: SPA competition vs [125I]-Gcg, hGcgR membranes
T2 construct: whole, on cells; also called hGCGR; hGcgR
T2 sequence (P47871 26-477): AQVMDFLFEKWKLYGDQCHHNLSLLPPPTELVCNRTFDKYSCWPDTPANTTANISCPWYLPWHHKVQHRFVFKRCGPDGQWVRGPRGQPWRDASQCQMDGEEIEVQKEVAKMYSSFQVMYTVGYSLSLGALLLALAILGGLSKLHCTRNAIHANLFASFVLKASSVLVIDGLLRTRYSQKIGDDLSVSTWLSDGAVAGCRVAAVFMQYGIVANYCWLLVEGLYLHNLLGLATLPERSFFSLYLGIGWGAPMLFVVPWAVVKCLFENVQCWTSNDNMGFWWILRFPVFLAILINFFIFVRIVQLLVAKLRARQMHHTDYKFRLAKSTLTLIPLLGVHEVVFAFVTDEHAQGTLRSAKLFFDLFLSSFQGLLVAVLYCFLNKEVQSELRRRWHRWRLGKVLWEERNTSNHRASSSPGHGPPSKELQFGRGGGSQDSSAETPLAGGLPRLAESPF
Experimental: The binding buffer contains 25 mM 4-(2-hydroxyethyl)-1-piperazineethanesulfonic acid (HEPES), pH 7.4, 2.5 mM CaCl₂, 1 mM MgCh, 0.1% (w/v) bacitracin (Research Products), 0.003% (w/v) Polyoxyethylenesorbitan monolaurate (TWEEN®-20), and Roche Complete™ Protease Inhibitors without EDTA. […] Plates are sealed and mixed on a plate shaker (setting 6) for 1 minute and read with a PerkinElmer Trilux MicroBeta® scintillation counter after 12 hours of incubation/settling time at room temperature.
Data are analyzed using four-parameter (curve maximum, curve minimum, IC₅₀, Hill slope) nonlinear regression routines (Genedata Screener, version 12.0.4, Genedata AG, Basal, Switzerland). […] Values for Kᵢ are reported as the geometric mean, with error expressed as the standard error of the mean (SEM) and n is equal to the number of independent replicates (determined in assays performed on different days).

human GLP-1 receptor = biological target: T3, human GLP-1 receptor (human, UniProt P43220 24-463); assay: SPA competition vs [125I]-GLP-1, hGLP-1R membranes
T3 construct: whole, on cells; also called hGLP-1R; human glucagon-like peptide-1 receptor
Method in brief: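 Kᵢ values are geometric means (SEM) over replicates run on separate days, derived from IC₅₀ of four-parameter curve fits. Buffer: HEPES 25 mM pH 7.4 with CaCl₂ 2.5 mM, MgCl₂ 1 mM, bacitracin 0.1%, TWEEN-20 0.003%, EDTA-free protease inhibitors.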

| Binder | Ki (human GIP receptor) | Ki (human glucagon receptor) | Ki (human GLP-1 receptor) |
| --- | --- | --- | --- |
| YXEGTXTSDXSIXLDXKAQXEFIXXLIEGGKSSGAPPPS (Aib2, αMeF(2F)6, 4Pal10, αMeL13, Orn16, K17(Z1), Aib20, D-Glu24, αMeY25, K31(Z1), C-term NH2; Z1=AEEA2-(γ-Glu)-(4-(4-iodophenyl)butanoyl)) | 0.0629 nM | 711 nM | 0.471 nM |
| YXEGTXTSDXXIXLDXKAQXEFIXXLIKGGPSSGAPPPS (Aib2, αMeF(2F)6, 4Pal10, Aib11, αMeL13, Orn16, K17(Z1), Aib20, D-Glu24 (printed e), αMeY25, K28(Z1), C-term NH2; Z1=AEEA-(γ-Glu)-(10-(4-carboxyphenoxy)decanoyl)) | 0.0578 nM | 238 nM | 1.22 nM |
| YXEGTXTSDXSIXLDXKAQXEFIXXLIEGGKSSGAPPPS (Aib2, αMeF(2F)6, Nle10, αMeL13, Orn16, K17(Z1), Aib20, D-Glu24, αMeY25, K31(Z1), C-term NH2; Z1=AEEA2-(γ-Glu)-CO-(CH2)12-CO2H) | 0.11 nM | 737 nM | 0.872 nM |
| YXEGTXTSDKSIXLDXKAQXEXIXXLIEGGPSSGAPPPS (Aib2, αMeF(2F)6, K10(Z1), αMeL13, Orn16, K17(Z1), Aib20, αMeF22, D-Glu24, αMeY25, C-term NH2; Z1=AEEA2-(γ-Glu)-CO-(CH2)10-CH3) | 0.022 nM | 23.1 nM | 0.211 nM |
| YXEGTXTSDKXIXLDXKAQXEFIXXLIEGGPSSGAPPPS (Aib2, αMeF(2F)6, K10(Z1), Aib11, αMeL13, Orn16, K17(Z1), Aib20, D-Glu24, αMeY25, C-term NH2; Z1=AEEA3-(γ-Glu)-CO-(CH2)10-CH3) | 0.0245 nM | 345 nM | 0.198 nM |
| YXEGTXTSDXXIXLDXKAQXGFIXXLIKGGPSSGAPPPS (Aib2, αMeF(2F)6, 4Pal10, Aib11, αMeL13, Orn16, K17(Z1), Aib20, D-Glu24 (printed e), αMeY25, K28(Z1), C-term NH2; Z1=AEEA2-(γ-Glu)-CO-(CH2)10-CH3, G at position 21) | 0.0197 nM | 135 nM | 0.188 nM |
| YXEGTXTSDXSIXLDXIAQXEFIKXLIKGGPSSGAPPPS (Aib2, αMeF(2F)6, 4Pal10, αMeL13, Orn16, Aib20, K24(Z1), αMeY25, K28(Z1), C-term NH2; Z1=AEEA2-(γ-Glu)-CO-(CH2)12-CO2H) | 0.12 nM | 151 nM | 1.67 nM |
| YXEGTXTSDXXIXLDXKAQXKFIXXLIEGGPSSGAPPPS (Aib2, αMeF(2F)6, 4Pal10, Aib11, αMeL13, Orn16, K17(Z1), Aib20, K21(Z1), D-Glu24, αMeY25, C-term NH2; Z1=AEEA2-(γ-Glu)-CO-(CH2)10-CH3) | 0.0162 nM | 2.91 nM | 0.234 nM |
| YXEGTXTSDXXIXLDXKAQXKFIXXLIEGGPSSGAPPPS (Aib2, αMeF(2F)6, 4Pal10, Aib11, αMeL13, Orn16, K17(Z1), Aib20, K21(Z1), D-Glu24, αMeY25, C-term NH2; Z1=AEEA-(γ-Glu)-CO-(CH2)12-CO2H) | 0.0782 nM | 230 nM | 1.85 nM |
| YXEGTXTSDXXIXLDXKAQXKFIXXLIEGGPSSGAPPPS (Aib2, αMeF(2F)6, 4Pal10, Aib11, αMeL13, Orn16, K17(Z1), Aib20, K21(Z1), D-Glu24, αMeY25, C-term NH2; Z1=AEEA-(γ-Glu)-(10-(4-carboxyphenoxy)decanoyl)) | 0.046 nM | 118 nM | 0.673 nM |
| YXEGTXTSDKXIXLDXKAQXEFIXXLIEGGPSSGAPPPS (Aib2, αMeF(2F)6, K10(Z1), Aib11, αMeL13, Orn16, K17(Z1), Aib20, D-Glu24, αMeY25, C-term NH2; Z1=AEEA2-(γ-Glu)-CO-(CH2)10-CH3) | 0.0161 nM | 132 nM | 0.289 nM |
| YXEGTXTSDXXIXLDXKAQXTFIXXLIKGGPSSGAPPPS (Aib2, αMeF(2F)6, 4Pal10, Aib11, αMeL13, Orn16, K17(Z1), Aib20, D-Glu24, αMeY25, K28(Z1), C-term NH2; Z1=AEEA2-(γ-Glu)-CO-(CH2)10-CH3, T at position 21) | 0.0166 nM | 60.6 nM | 0.265 nM |
| YXEGTXTSDXXIXLDXKAQXKFIXXLIEGGPSSGAPPPS (Aib2, αMeF(2F)6, 4Pal10, Aib11, αMeL13, Orn16, K17(Z1), Aib20, K21(Z1), D-Glu24, αMeY25, C-term NH2; Z1=AEEA3-(γ-Glu)-CO-(CH2)10-CH3) | 0.0218 nM | 12.2 nM | 0.194 nM |
| YXEGTXTSDXSIXLDXKAQXKFIXXLIXGGPSSGAPPPS (Aib2, αMeF(2F)6, 4Pal10, αMeL13, Orn16, K17(Z1), Aib20, K21(Z1), D-Glu24, αMeY25, Orn28, C-term NH2; Z1=AEEA2-(γ-Glu)-CO-(CH2)10-CH3) | 0.0131 nM | 14.3 nM | 0.119 nM |
| YXEGTXTSDXXIXLDXQAQXEFIKXLIKGGPSSGAPPPS (Aib2, αMeF(2F)6, 4Pal10, Aib11, αMeL13, Orn16, Aib20, K24(Z1), αMeY25, K28(Z1), C-term NH2; Z1=AEEA2-(γ-Glu)-(10-(4-carboxyphenoxy)decanoyl)) | 0.0375 nM | 134 nM | 0.424 nM |
| YXEGTXTSDXSIXLDXKAQXXFIXXLIKGGPSSGAPPPS (Aib2, αMeF(2F)6, 4Pal10, αMeL13, Orn16, K17(Z1), Aib20, Orn21, D-Glu24, αMeY25, K28(Z1), C-term NH2; Z1=AEEA2-(γ-Glu)-CO-(CH2)10-CH3) | 0.0215 nM | 93.3 nM | 0.101 nM |
| YXEGTXTSDXXIXLDXIAQXEFIKXLIKGGPSSGAPPPS (Aib2, αMeF(2F)6, 4Pal10, Aib11, αMeL13, Orn16, Aib20, K24(Z1), αMeY25, K28(Z1), C-term NH2; Z1=AEEA2-(γ-Glu)-(10-(4-carboxyphenoxy)decanoyl)) | 0.0432 nM | 44.6 nM | 0.557 nM |
| YXEGTXTSDXXIXLDXIAQXEFIKXLIKGGPSSGAPPPS (Aib2, αMeF(2F)6, 4Pal10, Aib11, αMeL13, Orn16, Aib20, K24(Z1), αMeY25, K28(Z1), C-term NH2; Z1=AEEA2-(γ-Glu)-CO-(CH2)12-CO2H) | 0.114 nM | 135 nM | 0.939 nM |
| YXEGTXTSDXXIXLDXIAQXEFIKXLIKGGPSSGAPPPS (Aib2, αMeF(2F)6, 4Pal10, αMeS11, αMeL13, Orn16, Aib20, K24(Z1), αMeY25, K28(Z1), C-term NH2; Z1=AEEA2-(γ-Glu)-CO-(CH2)12-CO2H) | 0.0491 nM | 328 nM | 0.863 nM |

From patent US20230265151A1, “GIP/GLP1 CO-AGONIST COMPOUNDS” (priority 2020, published 2023)
